The values below come from US10702592B2, “Peptides and combination of peptides for use in immunotherapy against NHL and other cancers” (Immatics Biotechnologies GmbH, priority 2016, dated 2020).

The target of the assay is HLA-A*02:01 (Homo sapiens, UniProt P04439, D140Y/D185E/D98H/E176V/E277Q/G131W/G231S/I119V/I121R/I166T/I218V/L300P/L318F/N151K/N90K/P208A/P217A/Q86G/Q94H/R138H/R169H/T345S). The assay can be described thus: MHC binding assay (UV-ligand exchange, beta2m ELISA). The conditions noted are these: binding to HLA-A*02:01, UV-ligand exchange. An excerpt:
Candidate peptides for T cell based therapies according to the present invention were further tested for their MHC binding capacity (affinity). The individual peptide-MHC complexes were produced by UV-ligand exchange, where a UV-sensitive peptide is cleaved upon UV-irradiation, and exchanged with the peptide of interest as analyzed. Only peptide candidates that can effectively bind and stabilize the peptide-receptive MHC molecules prevent dissociation of the MHC complexes. To determine the yield of the exchange reaction, an ELISA was performed based on the detection of the light chain (β2m) of stabilized MHC complexes. The assay was performed as generally described in Rodenko et al. (Rodenko et al., 2006).
96 well MAXISorp plates (NUNC) were coated over night with 2 ug/ml streptavidin in PBS at room temperature, washed 4× and blocked for 1 h at 37° C. in 2% BSA containing blocking buffer. Refolded HLA-A*02:01/MLA-001 monomers served as standards, covering the range of 15-500 ng/ml. Peptide-MHC monomers of the UV-exchange reaction were diluted 100 fold in blocking buffer. Samples were incubated for 1 h at 37° C., washed four times, incubated with 2 ug/ml HRP conjugated anti-β2m for 1 h at 37° C., washed again and detected with TMB solution that is stopped with […]. Absorption was measured at 450 nm. Candidate peptides that show a high exchange yield (preferably higher than 50%, most preferred higher than 75%) are generally preferred for a generation and production of antibodies or fragments thereof, and/or T cell receptors or fragments thereof, as they show sufficient avidity to the MHC molecules and prevent dissociation of the MHC complexes.
“103 (SLQDHLEKV; listed as Homo sapiens) [compound 103]”: the “Peptide exchange (MHC class I binding score, peptide exchange yield)” value (shortened to “Peptide exchange”) is given as ““+++” (≥50 = +++)”.
Then “104 (VLLGLPLLV; listed as Homo sapiens) [compound 104]”, with ““+++” (≥50 = +++)”.
For “105 (VLTPVILQV; listed as Homo sapiens) [compound 105]”, the “Peptide exchange” value is ““+++” (≥50 = +++)”.
Regarding “106 (VLYELLQYI; listed as Homo sapiens) [compound 106]”, the “Peptide exchange” value was ““++++” (≥75% = ++++)”.
Next, “107 (VQAVSIPEV; listed as Homo sapiens) [compound 107]”: ““+++” (≥50 = +++)”; “108 (YLAPENGYLM; listed as Homo sapiens) [compound 108]”: ““+++” (≥50 = +++)”; “109 (YLFQFSAAL; listed as Homo sapiens) [compound 109]”: ““+++” (≥50 = +++)”.
For “110 (YQYPFVLGL; listed as Homo sapiens) [compound 110]”, the “Peptide exchange” value is given as ““++++” (≥75% = ++++)”.
On to “111 (YLLDTLLSL; listed as Homo sapiens) [compound 111]”, for which the “Peptide exchange” value is recorded as ““+++” (≥50 = +++)”.
With “112 (FLAILPEEV; listed as Homo sapiens) [compound 112]”, the “Peptide exchange” value is listed as ““+++” (≥50 = +++)”.
“113 (FVIDSFEEL; listed as Homo sapiens) [compound 113]”: the “Peptide exchange” value is ““+++” (≥50 = +++)”.
Next, “114 (GLSDISPST; listed as Homo sapiens) [compound 114]”: ““++” (≥20% = ++)”.
Next, “115 (LLIDIIHFL; listed as Homo sapiens) [compound 115]”: ““++++” (≥75% = ++++)”; “116 (SLLDNLLTI; listed as Homo sapiens) [compound 116]”: ““+++” (≥50 = +++)”; “117 (VLATILAQL; listed as Homo sapiens) [compound 117]”: ““++++” (≥75% = ++++)”.
Then “118 (VLDGMIYAI; listed as Homo sapiens) [compound 118]”, with ““+++” (≥50 = +++)”; and “119 (ELCDIILRV; listed as Homo sapiens) [compound 119]”, with ““+++” (≥50 = +++)”; and “120 (VLLGTTWAL; listed as Homo sapiens) [compound 120]”, with ““+++” (≥50 = +++)”.
Regarding “121 (YLTGYNFTL; listed as Homo sapiens) [compound 121]”, the “Peptide exchange” value is ““+++” (≥50 = +++)”.
On to “122 (AISEAQESV; listed as Homo sapiens) [compound 122]”, for which the “Peptide exchange” value is recorded as ““++” (≥20% = ++)”.
Next, “123 (ALLSAFVQL; listed as Homo sapiens) [compound 123]”: ““+++” (≥50 = +++)”.
Consider “124 (FLGVVVPTV; listed as Homo sapiens) [compound 124]”, for which the “Peptide exchange” value is on record as ““+++” (≥50 = +++)”.
Next, “125 (FVAPPTAAV; listed as Homo sapiens) [compound 125]”: ““+++” (≥50 = +++)”.
Next, “127 (HLMEENMIVYV; listed as Homo sapiens) [compound 127]”: ““+++” (≥50 = +++)”.
Then “128 (KLFDASPTFFA; listed as Homo sapiens) [compound 128]”, with ““+++” (≥50 = +++)”; and “129 (SLFEASQQL; listed as Homo sapiens) [compound 129]”, with ““+++” (≥50 = +++)”; and “130 (VIFSYVLGV; listed as Homo sapiens) [compound 130]”, with ““+++” (≥50 = +++)”.
Turning to “131 (VLIEETDQL; listed as Homo sapiens) [compound 131]”, the “Peptide exchange” value is recorded as ““++” (≥20% = ++)”.
Next, “132 (VLQDQVDEL; listed as Homo sapiens) [compound 132]”: ““++” (≥20% = ++)”.
Next, “133 (ALEELTGFREL; listed as Homo sapiens) [compound 133]”: ““++” (≥20% = ++)”; “134 (ALGRLGILSV; listed as Homo sapiens) [compound 134]”: ““+++” (≥50 = +++)”.
Next, “135 (ALTGLQFQL; listed as Homo sapiens) [compound 135]”: ““+++” (≥50 = +++)”.
As for “136 (FIFGIVHLL; listed as Homo sapiens) [compound 136]”, the “Peptide exchange” value is recorded as ““+++” (≥50 = +++)”.
Next, “137 (FIQQERFFL; listed as Homo sapiens) [compound 137]”: ““+++” (≥50 = +++)”.
With “138 (NLINNIFEL; listed as Homo sapiens) [compound 138]”, the “Peptide exchange” value is ““++++” (≥75% = ++++)”.
Then “139 (FLASPLVAI; listed as Homo sapiens) [compound 139]”, with ““++++” (≥75% = ++++)”.
“140 (FLFEDFVEV; listed as Homo sapiens) [compound 140]”: the “Peptide exchange” value is on record as ““+++” (≥50 = +++)”.
For “141 (FLGELTLQL; listed as Homo sapiens) [compound 141]”, the “Peptide exchange” value is reported as ““+++” (≥50 = +++)”.
As for “142 (FLYEDSKSVRL; listed as Homo sapiens) [compound 142]”, the “Peptide exchange” value is given as ““+++” (≥50 = +++)”.
Next, “143 (TLHAVDVTL; listed as Homo sapiens) [compound 143]”: ““+++” (≥50 = +++)”; “144 (GLITQVDKL; listed as Homo sapiens) [compound 144]”: ““+++” (≥50 = +++)”; “145 (GLLHEVVSL; listed as Homo sapiens) [compound 145]”: ““+++” (≥50 = +++)”.
On to “146 (GLLQQPPAL; listed as Homo sapiens) [compound 146]”, for which the “Peptide exchange” value is on record as ““+++” (≥50 = +++)”.
Then “147 (GLSEYQRNFL; listed as Homo sapiens) [compound 147]”, with ““+++” (≥50 = +++)”.
Take “148 (ICAGHVPGV; listed as Homo sapiens) [compound 148]”: the “Peptide exchange” value is recorded as ““+++” (≥50 = +++)”.
Then “149 (ILNPVTTKL; listed as Homo sapiens) [compound 149]”, with ““+++” (≥50 = +++)”; and “150 (ILSEKEYKL; listed as Homo sapiens) [compound 150]”, with ““+++” (≥50 = +++)”; and “151 (ILVKQSPML; listed as Homo sapiens) [compound 151]”, with ““+++” (≥50 = +++)”.
Next, “152 (KIMYTLVSV; listed as Homo sapiens) [compound 152]”: ““++” (≥20% = ++)”; “153 (KLLKGIYAI; listed as Homo sapiens) [compound 153]”: ““+++” (≥50 = +++)”.
Then “154 (KLMNIQQQL; listed as Homo sapiens) [compound 154]”, with ““+++” (≥50 = +++)”; and “155 (KLMTSLVKV; listed as Homo sapiens) [compound 155]”, with ““+++” (≥50 = +++)”; and “156 (KMLEDDLKL; listed as Homo sapiens) [compound 156]”, with ““+++” (≥50 = +++)”.
For the substance “157 (KVLEFLAKV; listed as Homo sapiens) [compound 157]”, the “Peptide exchange” value is reported as ““+++” (≥50 = +++)”.
Next, “158 (KVQDVLHQV; listed as Homo sapiens) [compound 158]”: ““+++” (≥50 = +++)”; “159 (LLLSDSGFYL; listed as Homo sapiens) [compound 159]”: ““+++” (≥50 = +++)”.
